B1: Interferon-induced, double-stranded RNA-activated protein kinase (Homo sapiens), P19525 (parent)
chain: MAGDLSAGFFMEELNTYRQKQGVVLKYQELPNSGPPHDRRFTFQVIIDGREFPEGEGRSKKEAKNAAAKLAVEILNKEKKAVSPLLLTTTNSSEGLSMGNYIGLINRIAQKKRLTVNYEQCASGVHGPEGFHYKCKMGQKEYSIGTGSTKQEAKQLAAKLAYLQILSEETSVKSDYLSSGSFATTCESQSNSLVTSTLASESSSEGDFSADTSEINSNSDSLNSSSLLMNGLRNNQRKAKRSLAPRFDLPDMKETKYTVDKRFGMDFKEIELIGSGGFGQVFKAKHRIDGKTYVIKRVKYNNEKAEREVKALAKLDHVNIVHYNGCWDGFDYDPETSDDSLESSDYDPENSKNSSRSKTKCLFIQMEFCDKGTLEQWIEKRRGEKLDKVLALELFEQITKGVDYIHSKKLIHRDLKPSNIFLVDTKQVKIGDFGLVTSLKNDGKRTRSKGTLRYMSPEQISSQDYGKEVDLYALGLILAELLHVCDTAFETSKFFTDLRDGIISDIFDKKEKTLLQKLLSKKPEDRPNTSEILRTLTVWKKSPEKNERHTC

Experimental findings from IntAct's records for PubMed 22801494 are described below.

In this assay the parent is B1. To be noted: with nlrp3_human NLRP3, Q96P20.
Sequence of nlrp3_human NLRP3, Q96P20 (Q96P20 whole entry): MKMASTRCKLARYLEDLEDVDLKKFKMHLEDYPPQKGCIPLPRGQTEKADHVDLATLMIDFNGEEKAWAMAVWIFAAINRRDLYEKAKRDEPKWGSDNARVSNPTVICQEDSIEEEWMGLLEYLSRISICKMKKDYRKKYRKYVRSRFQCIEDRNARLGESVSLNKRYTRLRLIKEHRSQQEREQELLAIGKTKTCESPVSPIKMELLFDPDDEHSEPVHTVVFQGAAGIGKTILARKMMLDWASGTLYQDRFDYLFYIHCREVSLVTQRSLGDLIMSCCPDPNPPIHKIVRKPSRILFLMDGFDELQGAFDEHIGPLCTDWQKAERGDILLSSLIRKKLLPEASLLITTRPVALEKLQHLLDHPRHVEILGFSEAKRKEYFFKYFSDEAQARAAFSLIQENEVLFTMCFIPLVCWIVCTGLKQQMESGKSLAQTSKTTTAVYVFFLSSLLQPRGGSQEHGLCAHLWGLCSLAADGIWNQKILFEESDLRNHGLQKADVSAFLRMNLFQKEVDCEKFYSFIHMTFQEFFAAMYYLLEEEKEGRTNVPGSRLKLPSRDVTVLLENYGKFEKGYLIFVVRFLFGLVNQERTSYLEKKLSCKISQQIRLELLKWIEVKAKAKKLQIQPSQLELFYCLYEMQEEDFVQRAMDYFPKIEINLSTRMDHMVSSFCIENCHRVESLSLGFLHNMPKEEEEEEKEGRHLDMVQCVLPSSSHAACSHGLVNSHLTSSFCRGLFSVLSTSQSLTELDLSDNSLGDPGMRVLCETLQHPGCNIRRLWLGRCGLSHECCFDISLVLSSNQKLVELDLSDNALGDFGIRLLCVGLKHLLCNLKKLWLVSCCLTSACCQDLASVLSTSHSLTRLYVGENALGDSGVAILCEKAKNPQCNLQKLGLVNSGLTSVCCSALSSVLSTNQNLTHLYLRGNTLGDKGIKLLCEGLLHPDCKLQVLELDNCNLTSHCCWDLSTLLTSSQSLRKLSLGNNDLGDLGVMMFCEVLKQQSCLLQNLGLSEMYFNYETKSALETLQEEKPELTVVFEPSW
Regarding MAGDLSAGFFMEELNTYRQKQGVVLKYQELPNSGPPHDRRFTFQVIIDGREFPEGEGRSKKEAKNAAAKLAVEILNKEKKAVSPLLLTTTNSSEGLSMGNYIGLINRIAQKKRLTVNYEQCASGVHGPEGFHYKCKMGQKEYSIGTGSTKQEAKQLAAKLAYLQILSEETSVKSDYLSSGSFATTCESQSNSLVTSTLASESSSEGDFSADTSEINSNSDSLNSSSLLMNGLRNNQRKAKRSLAPRFDLPDMKETKYTVDKRFGMDFKEIELIGSGGFGQVFKAKHRIDGKTYVIRRVKYNNEKAEREVKALAKLDHVNIVHYNGCWDGFDYDPETSDDSLESSDYDPENSKNSSRSKTKCLFIQMEFCDKGTLEQWIEKRRGEKLDKVLALELFEQITKGVDYIHSKKLIHRDLKPSNIFLVDTKQVKIGDFGLVTSLKNDGKRTRSKGTLRYMSPEQISSQDYGKEVDLYALGLILAELLHVCDTAFETSKFFTDLRDGIISDIFDKKEKTLLQKLLSKKPEDRPNTSEILRTLTVWKKSPEKNERHTC [K296R], the “effect of a mutation on the interaction” value is listed as “disrupting interaction strength”.
